other: maximal [3AT] tolerated, Km and kcat data for six molecules are collected here from PMC4267655, “Brr2p carboxy-terminal Sec63 domain modulates Prp16 splicing RNA helicase” (Nucleic Acids Research, 2014).

Where a chain is given by its changes, count along the chain named. In names and notes the source's numbering stands.

Data set [1] concerns the target Brr2 H2-Sec63-2p L1951P, Gal4AD-prey fusion, P32639. Put plainly: Y2H interaction assay. The note with it: chain shown with the change; growth on -LWH medium with 3-AT; parent: 50.0.
Substrate in data set [2]: Nc1ncnc2c1ncn2[C@@H]1O[C@H](COP(=O)(O)OP(=O)(O)OP(=O)(O)O)[C@@H](O)[C@H]1O
Put plainly: ATPase assay, released Pi. It is filed as biochemical, Saccharomyces cerevisiae. The note with it: 10 nM enzyme, 50 ng/μl total yeast RNA, no Sec63-2p, 20 mM Tris-HCl pH 7.5, 75 mM KCl, 1 mM MgSO4, 30°C. The source says: ATPase assay, released Pi on Prp16p

Sequence of Brr2 H2-Sec63-2p L1951P, Gal4AD-prey fusion, P32639 (P32639 whole entry L1951P, the tested form may be a part): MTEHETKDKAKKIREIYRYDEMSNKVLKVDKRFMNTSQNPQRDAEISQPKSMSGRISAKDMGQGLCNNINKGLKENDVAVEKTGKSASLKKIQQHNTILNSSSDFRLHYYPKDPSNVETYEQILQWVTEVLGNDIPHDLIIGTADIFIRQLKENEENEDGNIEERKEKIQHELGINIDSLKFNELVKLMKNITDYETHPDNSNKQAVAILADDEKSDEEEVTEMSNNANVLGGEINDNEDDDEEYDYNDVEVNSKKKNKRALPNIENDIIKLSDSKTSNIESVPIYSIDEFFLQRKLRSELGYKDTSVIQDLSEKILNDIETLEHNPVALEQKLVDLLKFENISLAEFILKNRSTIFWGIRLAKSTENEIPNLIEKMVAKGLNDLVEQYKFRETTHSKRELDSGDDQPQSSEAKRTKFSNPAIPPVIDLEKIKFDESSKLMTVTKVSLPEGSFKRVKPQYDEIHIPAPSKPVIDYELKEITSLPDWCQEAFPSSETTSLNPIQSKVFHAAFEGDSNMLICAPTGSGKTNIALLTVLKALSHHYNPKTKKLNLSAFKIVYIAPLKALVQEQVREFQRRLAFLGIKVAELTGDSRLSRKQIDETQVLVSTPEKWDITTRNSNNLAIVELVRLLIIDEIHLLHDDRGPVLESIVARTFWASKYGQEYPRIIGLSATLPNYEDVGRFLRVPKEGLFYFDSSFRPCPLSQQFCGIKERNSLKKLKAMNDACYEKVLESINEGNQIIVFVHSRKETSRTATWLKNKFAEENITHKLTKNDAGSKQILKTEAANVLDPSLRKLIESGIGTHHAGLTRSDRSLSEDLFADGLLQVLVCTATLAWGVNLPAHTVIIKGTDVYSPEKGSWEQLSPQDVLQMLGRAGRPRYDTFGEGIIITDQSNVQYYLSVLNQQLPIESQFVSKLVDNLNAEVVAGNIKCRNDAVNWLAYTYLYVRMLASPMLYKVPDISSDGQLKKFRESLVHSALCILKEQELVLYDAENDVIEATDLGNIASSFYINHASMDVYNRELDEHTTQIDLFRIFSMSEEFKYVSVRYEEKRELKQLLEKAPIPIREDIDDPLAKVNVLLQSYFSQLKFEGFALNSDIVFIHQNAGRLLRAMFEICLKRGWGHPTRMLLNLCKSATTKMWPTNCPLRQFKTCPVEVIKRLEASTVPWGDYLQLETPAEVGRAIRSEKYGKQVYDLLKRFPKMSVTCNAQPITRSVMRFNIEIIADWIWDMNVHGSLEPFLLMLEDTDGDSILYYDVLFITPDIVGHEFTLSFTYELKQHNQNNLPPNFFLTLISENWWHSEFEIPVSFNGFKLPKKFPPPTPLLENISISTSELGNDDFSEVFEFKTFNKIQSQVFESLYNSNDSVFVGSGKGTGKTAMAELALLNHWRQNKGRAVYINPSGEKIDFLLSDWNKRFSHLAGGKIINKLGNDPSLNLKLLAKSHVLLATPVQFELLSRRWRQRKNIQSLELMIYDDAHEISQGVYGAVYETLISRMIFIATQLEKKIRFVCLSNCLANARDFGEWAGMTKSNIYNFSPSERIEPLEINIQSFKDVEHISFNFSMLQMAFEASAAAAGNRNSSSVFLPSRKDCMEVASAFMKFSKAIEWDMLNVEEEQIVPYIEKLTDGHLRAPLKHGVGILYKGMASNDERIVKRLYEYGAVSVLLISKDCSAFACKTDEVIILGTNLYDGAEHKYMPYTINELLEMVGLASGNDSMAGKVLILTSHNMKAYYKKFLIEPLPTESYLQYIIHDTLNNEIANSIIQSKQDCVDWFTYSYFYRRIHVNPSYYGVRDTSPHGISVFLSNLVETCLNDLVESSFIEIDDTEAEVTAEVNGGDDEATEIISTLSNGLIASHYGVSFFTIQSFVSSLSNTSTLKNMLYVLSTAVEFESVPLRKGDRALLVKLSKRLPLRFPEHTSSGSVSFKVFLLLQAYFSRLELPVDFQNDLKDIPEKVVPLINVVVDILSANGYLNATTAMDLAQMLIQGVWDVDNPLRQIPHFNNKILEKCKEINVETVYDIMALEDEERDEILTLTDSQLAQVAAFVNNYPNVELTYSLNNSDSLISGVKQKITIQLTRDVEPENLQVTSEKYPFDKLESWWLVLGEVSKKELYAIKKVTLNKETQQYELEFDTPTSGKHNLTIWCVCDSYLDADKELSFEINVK

B1: m21; m1 Prp16p:R456K; Prp16p:G691R; Brr2 H2-Sec63-2:L1951P (protein)
chain: MGHSGREERIKDIFKELTSKELTPGLLLTLQKLAQKPNTNLEQFIASCKALTKLSSNNPIIFNELLELLKNKSEEDSTGPKKIAPSINKRKKFKIQLDLDDNEDELDSPVQKKPAPTRTLFKRIDKLKAKQLRQYSPTVKDPSPNSEQQTQNGHAETKDYEPTRSEVVEEDREWYDNDDDYGNLVPEPLSELPEEAKLLPVIRNIDNDDALRNTVQLYPIPLKQRMEWIPPFLSKFALENKVPTSIIIGSISETSSQVSALSMVNPFRNPDSEFSANAKRGSKLVALRRINMEHIQQSRDNTTVLNTAMGEVLGLENNNKAKDKSNQKICDDTALFTPSKDDIKHTKEQLPVFRCRSQLLSLIRENQVVVIIGETGSGKTTQLAQYLYEEGYANDRGKSIVVTQPRRVAAISVAKRVAMEMQVPLGKEVGYSIRFEDVTDSECTKLKFVTDGILLKETLLDDTLDKYSCVIIDEAHERSLNTDILLGFFKILLARRRDLKLIITSATMNAKKFSAFFGNAPQFTIPGRTFPVQTIYTSNPVQDYVEAAVSQAVKIHLANDCSSGDILIFMTGQEDIETTFDTLQEKFLQVYSKKFGTANFEEINDIEILPIYSALPADLQFKIFQDLHGTKRKIIIATNIAETSLTIKGIRYVIDCGYSKLKVYNPKIGLDSLVITPISKANADQRSGRARRTAPGTAYRLYTEDTFKEDMYLQTIPEIQRTNLSNTLLLLKSLDVTDELSKFPFIDKPPLQTFLSSLYELWFIGAIDTSGQLTPLGLQMAKFPLQPSLSKILLIAVRNGCSDEMLTIVSMLSVPQVFYRPKERQKEADIARNKFFIAKSDHLTLLNVFEQWRANNFSSHWCNKHFVQYKSLVRARDIRDQLLTILKSQKIPVISSGKDWDIIKKCICSGFAHQAAKITGLRNYVHLKTGVSVQLHPTSALHGLGDLPPYVVYHELLMTSKEYICCVTSVDPFWLMEYGGLLYDIKRIKNDQEATTTGLFGEHYEHTLDKVEDDIDINIRRCKDMRDSVIQELKMTDNSNKEDKKQKTKKQNILNGKENSMKPFKRRKPFF
For the molecule B1, the other: maximal [3AT] tolerated in data set [1] is 0 µM.

B2: m21; m1 Prp16p:Q685H; Brr2 H2-Sec63-2:L1951P (protein)
chain: B1 chain with K456R, Q685H, R691G
For B2, in data set [1], the other: maximal [3AT] tolerated was 0 µM.

B3: m21; m1 Prp16p:R686Q; Brr2 H2-Sec63-2:L1951P (protein)
chain: B1 chain with K456R, R686Q, R691G
Turning to B3, the other: maximal [3AT] tolerated in data set [1] was determined as 200 µM.

B4: m21; m1 Prp16p:R686I; Brr2 H2-Sec63-2:L1951P (protein)
chain: B1 chain with K456R, R686I, R691G
As for B4, in data set [1], the other: maximal [3AT] tolerated was found to be 200 µM.

B5: m21; m1 Prp16p:D473E; Brr2 H2-Sec63-2:L1951P (protein)
chain: B1 chain with K456R, D473E, R691G
Take B5: the other: maximal [3AT] tolerated in data set [1] is 0 µM.

B6: Prp16p (Saccharomyces cerevisiae S288C) (protein)
chain: B1 chain with K456R, R691G
notes: recombinant from E. coli BL21 RIL, NiNTA purified (His-tagged)
The Km is the substrate concentration at which the rate is half of its maximum. As a reminder, the kcat is the maximal rate divided by the concentration of active sites. With B6, in data set [2], the Km is 751 ± 181 µM and the kcat turned out to be 3.05 ± 0.683 s⁻¹.
